We go through two proteins from paper PMC5703498, “Plant-type phytoene desaturase: Functional evaluation of structural implications” (PLoS ONE, 2017).

Positions count from the first letter of the chain named.

The data set concerns the molecule itself. In words: SEC; gel permeation chromatography (GPC) of the purified protein on a Superose 6 10/300 GL column, elution monitored at 280 nm, carried out as in ref. 6. A general note: In gel filtration, larger molecules generally elute earlier.

B1: Oryza sativa phytoene desaturase with C-terminal His6 (OsPDS-His6), wild type (enzyme, UniProt A2XDA1 88-578, looked up)
chain: AGQLSSFFRNSEQPTKPLQVVIAGAGLAGLSTAKYLADAGHKPILLEARDVLGGKIAAWKDEDGDWYETGLHIFFGAYPNIQNLFGELGINDRLQWKEHSMIFAMPNKPGEFSRFDFPETLPAPLNGIWAILRNNEMLTWPEKVKFALGLLPAMVGGQAYVEAQDGFTVSEWMKKQGVPDRVNDEVFIAMSKALNFINPDELSMQCILIALNRFLQEKHGSKMAFLDGNPPERLCMPIVDHVRSLGGEVRLNSRIQKIELNPDGTVKHFALTDGTQITGDAYVFATPVDILKLLVPQEWKEISYFKKLEKLVGVPVINVHIWFDRKLKNTYDHLLFSRSSLLSVYADMSVTCKEYYDPNRSMLELVFAPAEEWVGRSDTEIIEATMQELAKLFPDEIAADQSKAKILKYHVVKTPRSVYKTIPDCEPCRPLQRSPIEGFYLAGDYTKQKYLASMEGAVLSGKLCAQSVVEDYKMLSRRSLKSLQSEVPVAS
notes: residue numbers count on the immature protein A2XDA1.2 including the transit peptide; the GPC done here is described only as 'homooligomer'; Cloned through an NdeI site, so a start methionine probably precedes residue 88 (surmised); also called rice PDS-His6; wild type PDS; not shown: His6, C-terminal, kept
Turning to B1, the binding result was “binds”.

B2: Oryza sativa phytoene desaturase Arg300Ser mutant (Arg300Ser PDS) (enzyme, UniProt A2XDA1 88-578, looked up)
chain: B1 chain with R213S
notes: residue numbers count on the immature protein A2XDA1.2 including the transit peptide; Same construct as m1 apart from the mutation; about 70% in the FAD holo form, like the wild type; also called mutant enzyme Arg300Ser; source: E. coli, purified
With B2, the binding result was “binds”.
